In patent publication US20060193821, “Aptamers to the human IL-12 cytokine family and their use as autoimmune disease therapeutics” (published 2006) one finds Kd data, which are given here for 43 molecules.

The data set has as its target IL-23 (human, p19/p40 heterodimer) (Homo sapiens, UniProt Q9NPF7;P29460 SEQ:20-189,SEQ:23-328). In words: filter; DPBS Ca Mg. The conditions noted are these: tags: R&D Systems, carrier free. As for the experimental part: The dot blot binding assay previously described was used to characterize the relative potency of the majority of the aptamers synthesized. For KD determination, chemically synthesized aptamers were purified using denaturing polyacrylamide gel electrophoresis, 5′end labeled with γ-³²P ATP and were tested for direct binding to full human IL-23. An 8 point protein titration was used in the dot blot binding assay (either {100 nM, 30 nM, 10 nM, 3 nM, 1 nM, 300 pM, 100 pM, 0 pM} or {10 nM, 3 nM, 1 nM, 300 pM, 100 pM, 30 pM, 10 pM, 0 pM}) in Dulbecco's PBS (with Mg⁺⁺ and Ca⁺⁺) with 0.1 mg/mL BSA. KD values were calculated by fitting the equation y=(max/(1+K/protein))+yint using KaleidaGraph (KaleidaGraph v. 3.51, Synergy Software). Sequences of the ARC979 derivatives synthesized, purified and assayed for binding to IL-23 as well as the results of the protein binding characterization are tabulated below in Tables 29 and 30.

A word on the Kd: it is the equilibrium constant for the complex coming apart.

Chain of IL-23 (human, p19/p40 heterodimer) (Q9NPF7 20-189, chain 1 of 2): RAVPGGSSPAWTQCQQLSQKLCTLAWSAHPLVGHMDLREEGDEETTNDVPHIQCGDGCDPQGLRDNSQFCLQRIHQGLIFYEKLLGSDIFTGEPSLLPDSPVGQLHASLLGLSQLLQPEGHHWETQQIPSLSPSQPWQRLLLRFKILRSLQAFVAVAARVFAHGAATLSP
Chain of IL-23 (human, p19/p40 heterodimer) (P29460 23-328, chain 2 of 2): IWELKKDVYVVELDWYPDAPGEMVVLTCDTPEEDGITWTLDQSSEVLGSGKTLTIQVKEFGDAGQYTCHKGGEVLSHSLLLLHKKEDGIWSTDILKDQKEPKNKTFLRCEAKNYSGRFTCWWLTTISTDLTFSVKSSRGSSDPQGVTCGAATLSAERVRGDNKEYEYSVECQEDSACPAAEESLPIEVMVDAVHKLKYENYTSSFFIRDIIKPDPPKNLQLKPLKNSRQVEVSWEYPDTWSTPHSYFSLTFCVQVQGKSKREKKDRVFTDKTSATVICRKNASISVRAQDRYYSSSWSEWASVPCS

B1: ARC1471 (mixed)
RNA: GGCAAGUAAUUGGGGAGUGCGGGCGGGG
modifications: 2'-OMe C,U and three purines (A7,A8,G15 of ARC979); six PS; 3'-idT [2'-OMe C,U at 3,7,10,11,18,20,24; 2'-OMe purines A4,A5,G12; deoxy A,G elsewhere; PS 8-9,16-17,17-18,18-19,19-20,23-24 (N = PS linkage, left out); 3'-inverted dT at 29]
Turning to B1, the Kd was 23.5 nM.

B2: ARC1621 (mixed)
RNA: ACAGGCAAGUAAUUGGGGAGUGCGGGCGGGGUGU
modifications: 2'-OMe C,U and G16,G17,G24,G25,G30,G31; other A,G deoxy; PS 3-4,4-5; 3'-idT [PS 3-4,4-5; 2'-OMe at 2,6,10,13,14,16,17,21,23,24,25,27,30,31,32,34; other A,G deoxy; 3'-inverted dT at 35]
Regarding B2, the Kd was determined as 0.5 nM.

B3: ARC1430 (mixed)
RNA: B2 RNA
modifications: 2'-OMe C,U and G5; other A,G deoxy; 3'-idT
As to B3, the equilibrium dissociation constant (Kd) turned out to be 14.2 nM.

B4: ARC1456 (mixed)
RNA: B2 RNA
modifications: deoxy A,G; 2'-OMe C,U; PS 15-16; 3'-idT [PS linkage 15-16; 2'-OMe C,U at 2,6,10,13,14,21,23,27,32,34; all A,G 2'-deoxy; 3'-inverted dT at 35]
In the case of B4, the equilibrium dissociation constant (Kd) stood at 3.2 nM.

B5: ARC1433 (mixed)
RNA: B2 RNA
modifications: 2'-OMe C,U and G9; other A,G deoxy; 3'-idT
Take B5: the Kd amounted to 2.8 nM.

B6: ARC1434 (mixed)
RNA: B2 RNA
modifications: 2'-OMe C,U and A11; other A,G deoxy; 3'-idT
As to B6, the Kd is 3 nM.

B7: ARC1441 (mixed)
RNA: B2 RNA
modifications: 2'-OMe C,U and G20; other A,G deoxy; 3'-idT
For B7, the Kd turned out to be 2.7 nM.

B8: ARC1540 (mixed)
RNA: B2 RNA
modifications: 2'-OMe C,U and A8,G9,A11; other A,G deoxy; 3'-idT
Consider B8, for which the Kd was found to be 7.5 nM.

B9: ARC1454 (mixed)
RNA: B2 RNA
modifications: deoxy A,G; 2'-OMe C,U; PS 4-5; 3'-idT [PS linkage 4-5; 2'-OMe C,U at 2,6,10,13,14,21,23,27,32,34; all A,G 2'-deoxy; 3'-inverted dT at 35]
Consider B9, for which the Kd was 2.7 nM.

B10: ARC1428 (mixed)
RNA: B2 RNA
modifications: 2'-OMe C,U and A3; other A,G deoxy; 3'-idT
On to B10, for which the dissociation constant (Kd) amounted to 1.8 nM.

B11: ARC1541 (mixed)
RNA: B2 RNA
modifications: 2'-OMe C,U and G18,A19,G20,G22; other A,G deoxy; 3'-idT
Consider B11, for which the Kd came to 3.9 nM.

B12: ARC1465 (mixed)
RNA: B2 RNA
modifications: deoxy A,G; 2'-OMe C,U; PS 11-12,19-20,20-21,21-22,22-23,26-27; 3'-idT [2'-OMe C,U at 2,6,10,13,14,21,23,27,32,34; deoxy A,G elsewhere; PS 11-12,19-20,20-21,21-22,22-23,26-27 (N = PS linkage, left out); 3'-inverted dT at 35]
On to B12, for which the dissociation constant (Kd) is 1.3 nM.

B13: ARC1437 (mixed)
RNA: B2 RNA
modifications: 2'-OMe C,U and G16; other A,G deoxy; 3'-idT
In the case of B13, the Kd stood at 3.9 nM.

B14: ARC1432 (mixed)
RNA: B2 RNA
modifications: 2'-OMe C,U and A8; other A,G deoxy; 3'-idT
Regarding B14, the Kd turned out to be 3.8 nM.

B15: ARC1427 (mixed)
RNA: B2 RNA
modifications: 2'-OMe C,U and A1; other A,G deoxy; 3'-idT
Take B15: the Kd came to 3 nM.

B16: ARC1464 (mixed)
RNA: B2 RNA
modifications: deoxy A,G; 2'-OMe C,U; PS 31-32; 3'-idT [2'-OMe C,U at 2,6,10,13,14,21,23,27,32,34; deoxy A,G elsewhere; PS 31-32 (N = PS linkage, left out); 3'-inverted dT at 35]
As for B16, the Kd was found to be 2.4 nM.

B17: ARC1461 (mixed)
RNA: B2 RNA
modifications: deoxy A,G; 2'-OMe C,U; PS 25-26; 3'-idT [PS linkage 25-26; 2'-OMe C,U at 2,6,10,13,14,21,23,27,32,34; all A,G 2'-deoxy; 3'-inverted dT at 35]
With B17, the Kd was determined as 3.7 nM.

B18: ARC1448 (mixed)
RNA: B2 RNA
modifications: 2'-OMe C,U and G30; other A,G deoxy; 3'-idT
Turning to B18, the equilibrium dissociation constant (Kd) is 2.3 nM.

B19: ARC1459 (mixed)
RNA: B2 RNA
modifications: deoxy A,G; 2'-OMe C,U; PS 23-24; 3'-idT [PS linkage 23-24; 2'-OMe C,U at 2,6,10,13,14,21,23,27,32,34; all A,G 2'-deoxy; 3'-inverted dT at 35]
In the case of B19, the Kd amounted to 4 nM.

B20: ARC1447 (mixed)
RNA: B2 RNA
modifications: 2'-OMe C,U and G29; other A,G deoxy; 3'-idT
With B20, the Kd worked out at 2.5 nM.

B21: ARC1539 (mixed)
RNA: B2 RNA
modifications: 2'-OMe C,U and A1,G33; other A,G deoxy; 3'-idT
With B21, the equilibrium dissociation constant (Kd) worked out at 6.6 nM.

B22: ARC1440 (mixed)
RNA: B2 RNA
modifications: 2'-OMe C,U and A19; other A,G deoxy; 3'-idT
As to B22, the dissociation constant (Kd) came out at 6.7 nM.

B23: ARC1445 (mixed)
RNA: B2 RNA
modifications: 2'-OMe C,U and G26; other A,G deoxy; 3'-idT
For B23, the dissociation constant (Kd) stood at 2.8 nM.

B24: ARC1444 (mixed)
RNA: B2 RNA
modifications: 2'-OMe C,U and G25; other A,G deoxy; 3'-idT
Regarding B24, the Kd amounted to 4.4 nM.

B25: ARC1460 (mixed)
RNA: B2 RNA
modifications: deoxy A,G; 2'-OMe C,U; PS 24-25; 3'-idT [PS linkage 24-25; 2'-OMe C,U at 2,6,10,13,14,21,23,27,32,34; all A,G 2'-deoxy; 3'-inverted dT at 35]
In the case of B25, the Kd worked out at 5.8 nM.

B26: ARC1453 (mixed)
RNA: B2 RNA
modifications: deoxy A,G; 2'-OMe C,U; PS 3-4; 3'-idT [PS linkage 3-4; 2'-OMe C,U at 2,6,10,13,14,21,23,27,32,34; all A,G 2'-deoxy; 3'-inverted dT at 35]
Take B26: the dissociation constant Kd amounted to 4.4 nM.

B27: ARC1442 (mixed)
RNA: B2 RNA
modifications: 2'-OMe C,U and G22; other A,G deoxy; 3'-idT
Consider B27, for which the Kd was determined as 2.8 nM.

B28: ARC1458 (mixed)
RNA: B2 RNA
modifications: deoxy A,G; 2'-OMe C,U; PS 17-18; 3'-idT [PS linkage 17-18; 2'-OMe C,U at 2,6,10,13,14,21,23,27,32,34; all A,G 2'-deoxy; 3'-inverted dT at 35]
Regarding B28, the Kd is 2.9 nM.

B29: ARC1543 (mixed)
RNA: B2 RNA
modifications: 2'-OMe C,U and A1,A8,G9,A11,G18,A19,G20,G22,G26,G28,G29,G33; other A,G deoxy; 3'-idT
B29: the Kd is 5.9 nM.

B30: ARC1435 (mixed)
RNA: B2 RNA
modifications: 2'-OMe C,U and A12; other A,G deoxy; 3'-idT
In the case of B30, the Kd was 9.8 nM.

B31: ARC1438 (mixed)
RNA: B2 RNA
modifications: 2'-OMe C,U and G17; other A,G deoxy; 3'-idT
With B31, the Kd is 6 nM.

B32: ARC1443 (mixed)
RNA: B2 RNA
modifications: 2'-OMe C,U and G24; other A,G deoxy; 3'-idT
Take B32: the Kd is 2 nM.

B33: ARC1457 (mixed)
RNA: B2 RNA
modifications: deoxy A,G; 2'-OMe C,U; PS 16-17; 3'-idT [PS linkage 16-17; 2'-OMe C,U at 2,6,10,13,14,21,23,27,32,34; all A,G 2'-deoxy; 3'-inverted dT at 35]
For B33, the Kd was 3 nM.

B34: ARC1455 (mixed)
RNA: B2 RNA
modifications: deoxy A,G; 2'-OMe C,U; PS 5-6; 3'-idT [PS linkage 5-6; 2'-OMe C,U at 2,6,10,13,14,21,23,27,32,34; all A,G 2'-deoxy; 3'-inverted dT at 35]
In the case of B34, the Kd was 1.6 nM.

B35: ARC1446 (mixed)
RNA: B2 RNA
modifications: 2'-OMe C,U and G28; other A,G deoxy; 3'-idT
For B35, the Kd came out at 2.1 nM.

B36: ARC1450 (mixed)
RNA: B2 RNA
modifications: 2'-OMe C,U and G33; other A,G deoxy; 3'-idT
Take B36: the Kd worked out at 2.6 nM.

B37: ARC1439 (mixed)
RNA: B2 RNA
modifications: 2'-OMe C,U and G18; other A,G deoxy; 3'-idT
With B37, the Kd worked out at 4.8 nM.

B38: ARC1542 (mixed)
RNA: B2 RNA
modifications: 2'-OMe C,U and G26,G28,G29; other A,G deoxy; 3'-idT
On to B38, for which the Kd was determined as 1.2 nM.

B39: ARC1463 (mixed)
RNA: B2 RNA
modifications: deoxy A,G; 2'-OMe C,U; PS 30-31; 3'-idT [2'-OMe C,U at 2,6,10,13,14,21,23,27,32,34; deoxy A,G elsewhere; PS 30-31 (N = PS linkage, left out); 3'-inverted dT at 35]
As for B39, the dissociation constant Kd is 3.6 nM.

B40: ARC1451 (mixed)
RNA: B2 RNA
modifications: 2'-OMe C,U and A1,A3,G33; other A,G deoxy; 3'-idT
As to B40, the Kd is 10.2 nM.

B41: ARC1452 (mixed)
RNA: B2 RNA
modifications: 2'-OMe C,U and A7,A8,G15; other A,G deoxy; 3'-idT
As to B41, the Kd worked out at 18.9 nM.

B42: ARC1449 (mixed)
RNA: B2 RNA
modifications: 2'-OMe C,U and G31; other A,G deoxy; 3'-idT
Consider B42, for which the Kd stood at 2.6 nM.

B43: ARC1470 (mixed)
RNA: GGCAAGUAAUUGGGGAGUGCGGGCGGGG
modifications: deoxy A,G; 2'-OMe C,U; six PS; 3'-idT [2'-OMe C,U at 3,7,10,11,18,20,24; deoxy A,G elsewhere; PS 8-9,16-17,17-18,18-19,19-20,23-24 (N = PS linkage, left out); 3'-inverted dT at 29]
On to B43, for which the Kd worked out at 8.6 nM.
